Reference: the Immune Epitope Database (IEDB)

Legend:
[1] = target: HLA-A*68:02; assay: IEDB peptide-MHC binding, cellular MHC/competitive/fluorescence; ≥ and ≤ were set here for values at or beyond the usual limits of such assays
[2] = target: HLA-A*02:02; assay: IEDB peptide-MHC binding, purified MHC/competitive/radioactivity; ≥ and ≤ were set here for values at or beyond the usual limits of such assays
[3] = target: HLA-A*02:06; assay: as above
[4] = target: HLA-A*02:03; assay: as above
[5] = target: HLA-A*02:01; assay: as above
[6] = source organism: Hepacivirus hominis
[7] = source organism: Vaccinia virus WR
[8] = source organism: Influenza A virus
[9] = source organism: Mammarenavirus choriomeningitidis
[10] = source organism: Mammarenavirus lassaense
[11] = source organism: Mammarenavirus whitewaterense
[12] = source organism: Mammarenavirus machupoense

Row | Sequence | IC50 ([1]; source organism: SARS-CoV1) [nM] | IC50 ([2]; source organism: SARS-CoV1) [nM] | IC50 ([3]; source organism: SARS-CoV1) [nM] | IC50 ([4]; source organism: SARS-CoV1) [nM] | IC50 ([5]; source organism: SARS-CoV1) [nM] | IC50 [1, 7] [nM] | IC50 [2, 7] [nM] | IC50 [3, 7] [nM] | IC50 [4, 7] [nM] | IC50 [5, 7] [nM] | also measured
1 | FLLNKEMYL | 12000 | 0.33 | 1.6 | 1.1 | 1.1 |  |  |  |  |  | 
2 | LLLSTTEWQV |  |  |  |  |  |  |  |  |  |  | IC50 [1, 6]: 10100 nM; IC50 [2, 6]: 18 nM; IC50 [3, 6]: 13 nM; IC50 [4, 6]: 101 nM; IC50 [5, 6]: 7.1 nM
3 | AQMGTLLIA | 12200 | 65 | 0.44 | 1.6 | 37 |  |  |  |  |  | 
4 | ALALEQYGI |  |  |  |  |  | 40400 | 0.69 | 548 | 40 | 30 | 
5 | QLVKDESIQL |  |  |  |  |  | 7940 | 157 | 1810 | 130 | 916 | 
6 | SQMETDFLEL | 20100 | 227 | 21 | 597 | 92 |  |  |  |  |  | 
7 | VLTHGLASV | 5420 | 9.6 | 1.4 | 0.3 | 3.7 |  |  |  |  |  | 
8 | AIMDKNIML |  |  |  |  |  |  |  |  |  |  | IC50 [1, 8]: 13000 nM; IC50 [2, 8]: 153 nM; IC50 [3, 8]: 304 nM; IC50 [4, 8]: 802 nM; IC50 [5, 8]: 75 nM
9 | KILSDENYL |  |  |  |  |  | 46600 | 196 | 28 | 1170 | 121 | 
10 | FMLNVSYLC |  |  |  |  |  |  |  |  |  |  | IC50 [1, 9]: 8480 nM; IC50 [2, 9]: 196 nM; IC50 [3, 9]: 932 nM; IC50 [4, 9]: 1260 nM; IC50 [5, 9]: 1050 nM
11 | IALCKVTVPT |  |  |  |  |  | ≥ 70000 | 1960 | 652 | 2220 | 2120 | 
12 | ALVLLILMTA | 12500 | 67 | 61 | 51 | 325 |  |  |  |  |  | 
13 | TLFGRGVIDT |  |  |  |  |  | 5730 | 199 | 3310 | 96 | 130 | 
14 | IVSHLRASTT |  |  |  |  |  | 60600 | 139 | 173 | 111 | 896 | 
15 | LLNVQTLISL |  |  |  |  |  | 14500 | 24 | 97 | 16 | 73 | 
16 | KLFTIAMWLL | 9420 | 8.5 | 262 | 709 | 30 |  |  |  |  |  | 
17 | YLLMHLVSL |  |  |  |  |  | 7750 | 0.18 | 0.25 | 1.4 | 3.5 | 
18 | NLLEQLIENI |  |  |  |  |  | 24700 | 836 | 396 | 1440 | 326 | 

Row | Sequence | IC50 ([1]; source organism: SARS-CoV1) [nM] | IC50 ([2]; source organism: SARS-CoV1) [nM] | IC50 ([3]; source organism: SARS-CoV1) [nM] | IC50 ([4]; source organism: SARS-CoV1) [nM] | IC50 ([5]; source organism: SARS-CoV1) [nM] | IC50 [1, 7] [nM] | IC50 [2, 7] [nM] | IC50 [3, 7] [nM] | IC50 [4, 7] [nM] | IC50 [5, 7] [nM] | also measured
19 | KINPLLDEPL |  |  |  |  |  | 10100 | 53 | 19 | 304 | 1470 | 
20 | MLLIAQAEA |  |  |  |  |  |  |  |  |  |  | IC50 [1, 6]: 6150 nM; IC50 [2, 6]: 141 nM; IC50 [3, 6]: 645 nM; IC50 [4, 6]: 123 nM; IC50 [5, 6]: 82 nM
21 | MLVNGDDLVV |  |  |  |  |  |  |  |  |  |  | IC50 [1, 6]: 8980 nM; IC50 [2, 6]: 54 nM; IC50 [3, 6]: 186 nM; IC50 [4, 6]: 104 nM; IC50 [5, 6]: 56 nM
22 | LLLENKSLTI |  |  |  |  |  | 9580 | 982 | 1320 | 985 | 439 | 
23 | YLLGLSAIM | 12100 | 1.7 | 3.2 | 37 | 1.1 |  |  |  |  |  | 
24 | GLLDSIKMI |  |  |  |  |  | ≥ 70000 | 80 | 43 | 14 | 15 | 
25 | KLPTWLGAAI |  |  |  |  |  | 6370 | 103 | 295 | 123 | 226 | 
26 | WIKDIMTST |  |  |  |  |  | 9480 | 193 | 136 | 12 | 948 | 
27 | LNISGYNFSL |  |  |  |  |  |  |  |  |  |  | IC50 [1, 10]: 6000 nM; IC50 [2, 10]: 16 nM; IC50 [3, 10]: 421 nM; IC50 [4, 10]: 4550 nM; IC50 [5, 10]: 375 nM
28 | YNLSLSAAV |  |  |  |  |  |  |  |  |  |  | IC50 [1, 11]: ≥ 70000 nM; IC50 [2, 11]: 868 nM; IC50 [3, 11]: 1660 nM; IC50 [4, 11]: 1150 nM; IC50 [5, 11]: 255 nM
29 | FLTNKLLLFA | 11700 | 0.42 | 7.5 | 1.4 | 6.2 |  |  |  |  |  | 
30 | ALLFLMSFT | 16000 | 2830 | 128 | 1990 | 406 |  |  |  |  |  | 
31 | LLVAAGMEA | 19300 | 17 | 117 | 17 | 51 |  |  |  |  |  | 
32 | YLIRALTL |  |  |  |  |  |  |  |  |  |  | IC50 [1, 8]: 9520 nM; IC50 [2, 8]: 216 nM; IC50 [3, 8]: 2520 nM; IC50 [4, 8]: 145 nM; IC50 [5, 8]: 607 nM
33 | GLSQFTHTV |  |  |  |  |  |  |  |  |  |  | IC50 [1, 12]: 15100 nM; IC50 [2, 12]: 5.3 nM; IC50 [3, 12]: 332 nM; IC50 [4, 12]: 7.7 nM; IC50 [5, 12]: 18 nM
34 | FLWLLWPVTL | 5220 | 2.7 | 28 | 14 | 0.98 |  |  |  |  |  | 
35 | ALEQYGIENT |  |  |  |  |  | 21800 | 3150 | 1270 | 2160 | 1450 | 
